# From publication PMC4683529, “Cancer associated missense mutations in BAP1 catalytic domain induce amyloidogenic aggregation: A new insight in enzymatic inactivation” (Scientific Reports, 2015)
# Target: the molecule itself
# Experiment: ultracentrifugation of heated protein and dot blot of the pellet with A11 and OC antibodies; 7 uM protein heated at 37 °C for 1 h, then 14 h at 25 °C; 1,00,000 x g for 60 min (2 h for OC)
protein,measurement,value
"BAP1 catalytic domain (1–240), wild type (domain or fragment, human, UniProt Q92560 1-240, looked up, BRCA1 associated protein 1 (BAP1), human, N-terminal catalytic (UCH) domain, residues 1-240, subcloned into pGEX-6P-1 from Flag-HA-BAP1; also called WT 240; BAP1 (1–240); source: E. coli Rosetta 2, purified (standard GST purification protocol)) MNKGWLELESDPGLFTLLVEDFGVKGVQVEEIYDLQSKCQGPVYGFIFLFKWIEERRSRRKVSTLVDDTSVIDDDIVNNMFFAHQLIPNSCATHALLSVLLNCSSVDLGPTLSRMKDFTKGFSPESKGYAIGNAPELAKAHNSHARPEPRHLPEKQNGLSAVRTMEAFHFVSYVPITGRLFELDGLKVYPIDHGPWGEDEEWTDKARRVIMERIGLATAGEPYHDIRFNLMAVVPDRRIK",binding result,binds
"BAP1 catalytic domain (1–240) F81V (domain or fragment, human, UniProt Q92560 1-240, looked up, BAP1, human, catalytic domain residues 1-240 with the cancer-associated mutation F81V; source: E. coli Rosetta 2, purified (standard GST purification protocol)) MNKGWLELESDPGLFTLLVEDFGVKGVQVEEIYDLQSKCQGPVYGFIFLFKWIEERRSRRKVSTLVDDTSVIDDDIVNNMVFAHQLIPNSCATHALLSVLLNCSSVDLGPTLSRMKDFTKGFSPESKGYAIGNAPELAKAHNSHARPEPRHLPEKQNGLSAVRTMEAFHFVSYVPITGRLFELDGLKVYPIDHGPWGEDEEWTDKARRVIMERIGLATAGEPYHDIRFNLMAVVPDRRIK",binding result,binds
